In publication PMC8913300, “Two distinct classes of cochaperones compete for the EEVD motif in heat shock protein 70 to tune its chaperone activities” (The Journal of Biological Chemistry, 2022):

Legend:
[1] = target: Hsp72 tracer FITC-Ahx-…; test: fluorescence polarisation; saturation binding; 20 nM fluorescent Hsp72 tracer, J-domain protein titrated in 2x dilutions (110-0.013 μM told for DnaJB4); 50 mM Tris, 15 mM NaCl, 1 mM DTT, 0.01% Triton X-100, pH 8.0; 30 min at room temperature
[2] = target: Hsp70 EEVD motif (Homo sapiens) (UniProt P0DMV8); settings: cited from earlier work
Chain of Hsp70 EEVD motif (Homo sapiens) (P0DMV8 whole entry, looked up): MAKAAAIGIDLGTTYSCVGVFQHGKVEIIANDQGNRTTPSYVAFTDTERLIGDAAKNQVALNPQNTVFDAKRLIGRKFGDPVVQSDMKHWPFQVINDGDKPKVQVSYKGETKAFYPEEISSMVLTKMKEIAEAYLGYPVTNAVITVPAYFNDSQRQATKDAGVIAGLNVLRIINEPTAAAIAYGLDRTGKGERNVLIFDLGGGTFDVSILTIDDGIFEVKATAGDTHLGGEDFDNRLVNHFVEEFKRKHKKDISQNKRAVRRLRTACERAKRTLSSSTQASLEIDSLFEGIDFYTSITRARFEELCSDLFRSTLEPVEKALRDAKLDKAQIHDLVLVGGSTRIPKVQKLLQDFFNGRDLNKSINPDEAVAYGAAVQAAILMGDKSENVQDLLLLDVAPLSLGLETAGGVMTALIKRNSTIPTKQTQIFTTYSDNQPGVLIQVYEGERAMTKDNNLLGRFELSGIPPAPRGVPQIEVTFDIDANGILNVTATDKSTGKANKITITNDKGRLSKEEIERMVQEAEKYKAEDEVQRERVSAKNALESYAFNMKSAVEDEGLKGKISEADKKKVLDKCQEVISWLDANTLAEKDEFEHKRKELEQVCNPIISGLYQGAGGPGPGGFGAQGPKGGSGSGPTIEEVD

Chain of DnaJB1 CTD I (P25685 161-243): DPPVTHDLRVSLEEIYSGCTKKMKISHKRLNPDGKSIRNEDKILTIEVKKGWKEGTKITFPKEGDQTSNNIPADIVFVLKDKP

Substance | Kd [1] [µM] | Kd [2] [µM]
DnaJB4 QPD mutant (from UniProt Q9UDY4 1-337) (natural protein) | 2.44 | 
DnaJB1 CTD I (from UniProt P25685) |  | 15
